The target of test [1] is T1, human BLyS (full length, arginine 132 mutated to histidine) on CHO-K1 cells (human, UniProt Q9Y275 1-285).
T1 construct: also called hBLyS; CHO-K1 hBLyS
The test is described as follows: flow cytometry (FACS) on CHO-K1 hBLyS cells, Alexa 488 secondary antibody. As to the method:
(§1) The medium was aspirated completely, and the cells were rinsed once with PBS buffer (purchased from Invitrogen) and then treated with cell dispersion solution (TrypLE™ Express Enzyme, purchased from Life technology) and collected. The detailed steps are as follows: the cells were rinsed once with PBS buffer, after counting, the cells were diluted to 2×10⁶ cells/ml with PBS buffer, blocked with 2% (w/w) fetal bovine serum and incubated on ice for 30 minutes. 200 μL of which per well was aliquoted into a 96-well FACS plate and centrifuged at 2000 rpm at 4° C., then each 100 μL of the lead antibodies obtained from Embodiment 1 and 2 were aliquoted into each well and incubated on ice for 1 hour. […] After centrifuged and rinsed 3 times with FACS buffer, cells were suspended with 200 μL of FACS buffer and the results were detected and analyzed by FACS (FACS Calibur, purchased from BD). It was shown in Tables 12-13 that the lead antibody could bind to human BLyS protein on the cell surface and the lead antibody could cross-react with cynomolgus BLyS. The data in the table is MFI, the average fluorescence intensity of the cell population.

In test [2] the target is T2, cynomolgus BLyS (full length, arginine 132 mutated to histidine) on CHO-K1 cells (cynomolgus, UniProt Q9Y275 1-285 (human entry)).
T2 construct: also called cyno BLyS; CHO-K1 cynoBLyS
T2 chain: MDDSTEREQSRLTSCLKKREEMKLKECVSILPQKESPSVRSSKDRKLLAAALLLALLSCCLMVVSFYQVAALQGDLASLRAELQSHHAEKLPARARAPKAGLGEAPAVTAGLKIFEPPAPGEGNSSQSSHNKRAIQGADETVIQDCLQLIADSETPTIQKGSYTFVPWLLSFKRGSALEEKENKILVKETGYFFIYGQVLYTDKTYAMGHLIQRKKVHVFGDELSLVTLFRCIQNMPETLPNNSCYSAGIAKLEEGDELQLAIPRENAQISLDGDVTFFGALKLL
The test is described as follows: flow cytometry (FACS) on CHO-K1 cynoBLyS cells, Alexa 488 secondary antibody. How it is done:
as §1

For a further test, the target named is mouse BLyS protein (mouse, UniProt Q9WU72 69-309). Nature of the test: cell-based or functional assay.
Sequence of mouse BLyS protein (Q9WU72 69-309): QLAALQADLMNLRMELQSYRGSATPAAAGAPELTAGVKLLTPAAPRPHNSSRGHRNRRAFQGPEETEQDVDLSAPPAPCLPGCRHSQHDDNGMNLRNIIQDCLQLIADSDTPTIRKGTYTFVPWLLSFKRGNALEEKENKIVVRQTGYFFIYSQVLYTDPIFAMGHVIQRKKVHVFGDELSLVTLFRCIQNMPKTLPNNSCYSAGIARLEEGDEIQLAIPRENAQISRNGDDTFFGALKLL
The target of test [3] is T3, cynomolgus BLyS (full length, arginine to histidine at position 132) on CHO-K1 cells (cynomolgus, UniProt Q9Y275 1-285 (human entry)).
T3 construct: also called cyno BLyS; CHO-K1 cynoBLyS
T3 chain: T2 chain
The test is described as follows: flow cytometry, CHO-K1 cynoBLyS cells, antibody 0.0213 nM.

In test [4] the target is hBLyS-ECD (His-tagged extracellular domain of human BLyS protein, Ala134-Leu285) (human, UniProt Q9Y275 134-285). The test is described as follows: cell-based or functional assay.
Test [5] has as its target T4, human BLyS (full length, arginine to histidine at position 132) on CHO-K1 cells (human, UniProt Q9Y275 1-285).
T4 construct: also called hBLyS; CHO-K1 hBLyS
The test is described as follows: flow cytometry, CHO-K1 hBLyS cells, antibody 0.107 nM.

Test [6] concerns the target T4, human BLyS (full length, arginine to …). Nature of the test: flow cytometry, CHO-K1 hBLyS cells, antibody 0.00427 nM.
For test [7] the target is unchanged. The test is described as follows: flow cytometry, CHO-K1 hBLyS cells, antibody 66.7 nM.
The target of test [8] is T3, cynomolgus BLyS (full length, arginine …). The test is described as follows: flow cytometry, CHO-K1 cynoBLyS cells, antibody 2.67 nM. Background: A flow cytometer gives signals particle by particle.
The target in test [9] is T4, human BLyS (full length, arginine to …). Nature of the test: flow cytometry, CHO-K1 hBLyS cells, antibody 13.3 nM.
Test [10] deals with T3, cynomolgus BLyS (full length, arginine …). The test is described as follows: flow cytometry, CHO-K1 cynoBLyS cells, antibody 66.7 nM.
Test [11] has the same target. The test is described as follows: flow cytometry, CHO-K1 cynoBLyS cells, antibody 0 nM.
For test [12] the target is unchanged. Nature of the test: flow cytometry, CHO-K1 cynoBLyS cells, antibody 0.534 nM.
Test [13] deals with T4, human BLyS (full length, arginine to …). Nature of the test: flow cytometry, CHO-K1 hBLyS cells, antibody 0 nM.
Test [14] concerns the target T3, cynomolgus BLyS (full length, arginine …). Nature of the test: flow cytometry, CHO-K1 cynoBLyS cells, antibody 0.107 nM.
Test [15] addresses T4, human BLyS (full length, arginine to …). Nature of the test: flow cytometry, CHO-K1 hBLyS cells, antibody 0.534 nM.
The target in test [16] is T3, cynomolgus BLyS (full length, arginine …). The test is described as follows: flow cytometry, CHO-K1 cynoBLyS cells, antibody 13.3 nM.
For test [17], the target named is T4, human BLyS (full length, arginine to …). The test is described as follows: flow cytometry, CHO-K1 hBLyS cells, antibody 2.67 nM.
The target is the same in test [18]. The test is described as follows: flow cytometry, CHO-K1 hBLyS cells, antibody 0.0213 nM.
Test [19] addresses T3, cynomolgus BLyS (full length, arginine …). Nature of the test: flow cytometry, CHO-K1 cynoBLyS cells, antibody 0.00427 nM.

T4 sequence (Q9Y275 whole entry R130H): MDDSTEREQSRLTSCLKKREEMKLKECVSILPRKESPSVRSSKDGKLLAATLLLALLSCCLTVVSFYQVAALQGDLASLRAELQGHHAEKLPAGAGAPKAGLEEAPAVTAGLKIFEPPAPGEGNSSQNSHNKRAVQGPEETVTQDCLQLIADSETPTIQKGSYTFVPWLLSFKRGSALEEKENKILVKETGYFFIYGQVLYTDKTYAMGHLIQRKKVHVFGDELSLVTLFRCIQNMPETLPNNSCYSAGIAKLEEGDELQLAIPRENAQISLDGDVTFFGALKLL
T1 sequence (Q9Y275 other isoform, or with tags, fused parts or gaps limits assumed, change not shown): as the sequence (Q9Y275 whole entry R130H) above

B1: 20D1B6E9E5 (antibody, V domains shown)
VH: EVQLQQSVAELVRPGASVKLSCTASDFNIKNTYIHWVKQRPEQGLEWIGRIDPVNGNTKYAPKFQDKATIIVDTYSNTAYLQLSSLASEDTAVYYCARWPITTIVATDWYFDVWGTGTTVTVSS
VL: DVLMTQTQLALPVRLGEQASISCRSSQSIVNSNGNTYLEWYLQKPGQSPKLLIYKVSNRFSGVPDRFSGSGSGTDFTLKISRVEAEDLGVYYCFQGSHVPWTFGGGTKLEIK
notes: Mouse hybridoma antibody purified on Protein G
Regarding B1, the “EC50 (read off the curve)” value in test [1] and in [2] was about 0.2 nM each time.

B2: 97E7B3F2 (antibody, V domains shown)
VH: EVQLQQSGPELVKSGASVKISCKASGYTFTDHKMHWVKQSHGKSLEWIGYISPYNGGTGYNQKFKSKVTLTVDISSSTAYMELRSLTSEDSAVYYCARWGFYDVMDSWGQGTSVTVSS
VL: DVLLTQTPLSLPVSLGDQASISCRSSQTIVHIIGDTYLEWYLQKPGQSPKLLIYKVSNRFSGVPDRFSGSGAGTDFTLKISRVEAEDLGVYYCFQGSHVPRTFGGGTKLEIK
notes: Mouse hybridoma monoclonal antibody purified on Protein G
Regarding B2, the “mouse B lymphocyte proliferation (OD450 nm), antibody 0 nM” value with mouse BLyS protein stood at 2130 OD450 nm; in test [4] it was 2960 OD450 nm. Moreover, the “mouse B lymphocyte proliferation (OD450 nm), antibody 0.000256 nM” value with mouse BLyS protein stood at 2200 OD450 nm; in [4], 3380 OD450 nm. The results for the “mouse B lymphocyte proliferation (OD450 nm), antibody 0.00128 nM” value (in the test with mouse BLyS protein; in test [4]) were 2150 OD450 nm and 3760 OD450 nm, respectively. The “mouse B lymphocyte proliferation (OD450 nm), antibody 0.0064 nM” value was 2310 OD450 nm with mouse BLyS protein and 3770 OD450 nm in test [4]. The “mouse B lymphocyte proliferation (OD450 nm), antibody 0.032 nM” value turned out to be 2580 OD450 nm with mouse BLyS protein and 2940 OD450 nm in test [4]. In addition, the “mouse B lymphocyte proliferation (OD450 nm), antibody 0.16 nM” value in the test with mouse BLyS protein is 2360 OD450 nm; in test [4], 2990 OD450 nm. Besides, the “mouse B lymphocyte proliferation (OD450 nm), antibody 0.8 nM” value with mouse BLyS protein came out at 2310 OD450 nm; in test [4], 438 OD450 nm. For the same molecule, the “mouse B lymphocyte proliferation (OD450 nm), antibody 4 nM” value with mouse BLyS protein stood at 2410 OD450 nm; in test [4], 364 OD450 nm. In addition, the “mouse B lymphocyte proliferation (OD450 nm), antibody 20 nM” value with mouse BLyS protein worked out at 2290 OD450 nm; in test [4], 383 OD450 nm. Further, the “mouse B lymphocyte proliferation (OD450 nm), antibody 100 nM” value worked out at 2310 OD450 nm with mouse BLyS protein and 377 OD450 nm in test [4]. Further, the MFI in [3] was determined as 112 MFI; in test [5] it was 174 MFI; in test [6] it was 48.2 MFI; in [7], 406 MFI; in test [8], 705 MFI; in [9], 349 MFI. Also, the MFI in test [10] stood at 770 MFI; in [11] it was 22.8 MFI; in [12] it was 688 MFI; in test [13] it was 32.4 MFI; in test [14] it was 288 MFI; in test [15], 318 MFI. For the same molecule, the MFI in test [16] was determined as 710 MFI; in test [17], 332 MFI; in [18], 78.7 MFI; in test [19], 53 MFI.

B3: 97E7B3F2 (antibody, V domains shown)
VH: B2 VH
VL: B2 VL
notes: as for B1
On to B3, for which the “EC50 (read off the curve)” value in test [1] and in test [2] was about 0.1 nM throughout.

B4: 93C6F10D3 (antibody, V domains shown)
VH: EVQLVESGGGLVTPGGSLKLSCVASGFAFSTYGMSWVRQTPERRLEWVAYISGGGGSIYYPDSVKGRFTISRDNAKNILYLQMSSLKSEDTAMYHCTRHPDLLLRYDYALDHWGQGTSVTVSS
VL: DIQMTQSPASLSASVGETVTITCRASENIHIYLAWYQQKQGKSPQLLVYNGKTLADGVPSRFSGSGSGTQYSLKINTLQPEDFGNYYCQHFWNSTWTFGGGTKLEIK
notes: as for B1
In the case of B4, the 50% effective concentration (EC50 (read off the curve)) in test [1] and in test [2] was about 0.1 nM in each case.

For orientation: EC50 (read off the curve) means the midpoint of the concentration-response curve. High values mean a need for much substance, low ones an effect from little substance.

Source of the values: patent US20210347873A1 (SHANGHAI PHARMAEXPLORER, published 2021).
